Assay results as given in patent publication US20080305041A1, “Pf4 Pharmacophores and Their Uses” (BIOQUANTA CORP., priority 2004, published 2008).

Tests used:
PF4 receptor [1] = assay: PF4 receptor activation by PF4-derived peptides
PF4 receptor [2] = assay: PF4 receptor binding / competition of PF4-derived peptides
HUVEC [3] = assay: Angiogenic activity of mutant PF4 polypeptides in HUVEC cells; type: cell-based, Human; conditions: for antiangiogenic properties/activity of PF4 (effect of the mutation): Table 4 column Function
Procedure: (§1) Inhibition of DNA synthesis was measured by [^3H]-thymidine incorporation assay. Cells were plated at 15,000 cells per well in a 24 well-plate in 0.5 ml medium containing 2.5% FCS and allowed to attach for 4 hours at 37° C. Proliferation was then induced by addition of 10 ng/ml of FGF-2, VEGF165 or VEGF121. Increasing concentrations of purified recombinant PF4 proteins were added to some wells and HUVEC were further incubated for 48 hours. [^3H]-thymidine (1 μCi/well) was added during the last 20 hours of incubation. Cells were washed twice with PBS and treated with ice-cold 10% (w/v) trichloroacetic acid for 30 minutes. The resulting precipitates were solubilized with 1 M NaOH and incorporated radioactivity was measured in a Beckman LS-6500 multi-purpose scintillation counter.
HUVEC migration was evaluated in a modified Boyden chamber assay. Transwell cell culture chamber inserts with porous polycarbonate filters ([…]) were coated with 0.2% gelatin. HUVEC suspended in medium supplemented with 2.5% FCS were added to the inserts at 4×10^4 cells per well. The inserts were placed over chambers containing a chemotactic stimulus (10 ng/ml VEGF165), and cells were allowed to migrate for 4 hours at 37° C. in a CO2 incubator. For inhibition experiments, recombinant PF4 proteins were added to both the lower and upper chambers. After incubation, filters were rinsed with PBS, fixed with 1% paraformaldehyde and stained with hematoxyline of Harris (EMD Chemicals Inc. Gibbstown, N.J.).
(§2) The upper surfaces of the filters was scraped with a cotton swab to remove the nonmigrant cells. The […] in a optical microscope at high powered (×200) magnification, and the number of cells within the microscope visualization field was recorded. Each experimental point was performed in triplicate, and 20 visual fields were analyzed per filter.
Next, the PF4 surface was mapped using site-directed mutagenesis. In particular, a series of mutant PF4 polypeptides was generated, and their angiogenic activity in HUVEC cells was investigated using assays such as those described in Section 6.1, above. Table 3 below lists amino acid sequences of the PF4 polypeptides generated, along with each polypeptide designation and sequence identification number (SEQ ID NO.). The first sequence, which is designated WTPF4, corresponds to the wild-type, mature PF4 amino acid sequence that is also depicted in FIG. 1C (SEQ ID NO:1). The other sequences depicted in Table 3 comprise one or more amino acid substitutions, indicated by bold-faced, underlined type in the amino acid sequence.

HUVEC [4] = assay: Endothelial cell proliferation assay ([3H]-thymidine incorporation); type: cell-based, Human; conditions: stimulus not given
Procedure: (§3) Human umbilical vein endothelial cells (HUVEC) were isolated by collagenase (Roche Diagnostics) digestion as described previously (Jaffe et al., J Clin Invest. 1973; 85(11):2745-56).
(§4) Cells were grown in M199 medium containing 15% fetal calf serum (FCS), 5% human serum, 2 mM glutamine, 50 U/ml penicillin, 50 μg/ml streptomycin, 2.5 μg/ml amphotericin B, and 15 mM HEPES. Cultures were maintained at 37° C. amd 5% CO2 in humidified atmosphere. Every 3-4 days, the cultures were harvested by trypsin treatment, diluted, replated and grown to confluence. HUVEC grown until confluence from the second or third passage are preferably used for experiments described here.
as §1, with “Cells were washed twice with PBS and treated with ice-cold 10% (w/v) trichloroacetic acid for 30 minutes.” left out

HUVEC [5] = assay: HUVEC migration assay (modified Boyden chamber); type: cell-based, Human
Procedure: as §3, §4
HUVEC migration was evaluated in a modified Boyden chamber assay. Transwell cell culture chamber inserts with porous polycarbonate filters ([…]) were coated with 0.2% gelatin. HUVEC suspended in medium supplemented with 2.5% FCS were added to the inserts at 4×10^4 cells per well. […]
as §2

P34-53: peptide PHSPTAQLIATLKNGRKISL (SEQ ID NO:159), derived from residues 34-53 of mature PF4 [Mutant P34-53]
activation of PF4 receptor (PF4 receptor [1]): does not activate
competition against P34-56 for target binding (PF4 receptor [2]; competitor P34-56): effectively competes
competition with PF4 for binding to the PF4 receptor (PF4 receptor [2]; competitor PF4): effectively competes

P37-56: peptide PTAQLIATLKNGRKISLDLQ (SEQ ID NO:158), P34-56 without capping box [Mutant P37-56]
activation of PF4 receptor (PF4 receptor [1]): does not activate

P34-56: peptide PHSPTAQLIATLKNGRKISLDLQ (SEQ ID NO:157), derived from residues 34-56 of mature PF4 [Mutant P34-56]
activation of PF4 receptor (PF4 receptor [1]): activate
binding to PF4 receptor (PF4 receptor [2]): bind to

P35-53: peptide PSPTAQLIATLKNGRKISL (SEQ ID NO:160), P34-53 with His2 removed [Mutant P35-53]
activation of PF4 receptor (PF4 receptor [1]): does not bind to or activate
binding to PF4 receptor (PF4 receptor [2]): does not bind to

B1: PF4-M10H: mutant PF4 polypeptide SEQ ID NO:19; single mutant T47A, without HBD (protein, listed as Homo sapiens)
chain: EAEEDGDLQCLCVKTASQVRPRHITSLEVIKAGPHCPTAQLIATLKNGRKICLDLQAPLYQEIIQELLES
antiangiogenic properties/activity of PF4 (effect of the mutation) (HUVEC [3]): Mutation does not suppress

B2: PF4-M2: mutant PF4 polypeptide SEQ ID NO:3; tests importance of Cys residues (protein, listed as Homo sapiens)
chain: EAEEDGDLQSLCVKTTSQVRPRHITSLEVIKAGPHSPTAQLIATLKNGRKICLDLQAPLYKKIIKKLLES
antiangiogenic properties/activity of PF4 (effect of the mutation) (HUVEC [3]): Complete loss of activity due

B3: PF4-M5: mutant PF4 polypeptide SEQ ID NO:9; triple mutant L42S, V44Q, T47A carrying HBD (protein, listed as Homo sapiens)
chain: EAEEDGDLQCSCQKTASQVRPRHITSLEVIKAGPHCPTAQLIATLKNGRKICLDLQAPLYKKIIKKLLES
antiangiogenic properties/activity of PF4 (effect of the mutation) (HUVEC [3]): Mutation decreases the

B4: PF4-M2H: mutant PF4 polypeptide SEQ ID NO:4; tests importance of Cys residues (protein, listed as Homo sapiens)
chain: EAEEDGDLQSLCVKTTSQVRPRHITSLEVIKAGPHSPTAQLIATLKNGRKICLDLQAPLYQEIIQELLES
antiangiogenic properties/activity of PF4 (effect of the mutation) (HUVEC [3]): Complete loss of activity due

B5: PF4-M3H: mutant PF4 polypeptide SEQ ID NO:6; PF4-M3 mutant without HBD (protein, listed as Homo sapiens)
chain: EAEEDGDLRCLCVKTTSQVRPRHITSLEVIKAGPHCPTAQLIATLKNGRKICLDLQAPLYQEIIQELLES
inhibition of the proliferation of HUVEC cells (HUVEC [4]): This mutant cannot inhibit
inhibition of cell migration (HUVEC) (HUVEC [5]): This mutant cannot inhibit
antiangiogenic properties/activity of PF4 (effect of the mutation) (HUVEC [3]): cancels the antiangiogenic

B6: PF4-M3: mutant PF4 polypeptide SEQ ID NO:5; DLQ motif replaced by IL8-like motif, carrying HBD (protein, listed as Homo sapiens)
chain: EAEEDGDLRCLCVKTTSQVRPRHITSLEVIKAGPHCPTAQLIATLKNGRKICLDLQAPLYKKIIKKLLES
effect on HUVEC compared with WTPF4 (HUVEC [3]): sulfate. It has the same effect

B7: PF4-M6: mutant PF4 polypeptide SEQ ID NO:11; triple mutant Q49A, V50S, H54A carrying HBD (protein, listed as Homo sapiens)
chain: EAEEDGDLQCLCVKTTSASRPRAITSLEVIKAGPHCPTAQLIATLKNGRKICLDLQAPLYKKIIKKLLES
antiangiogenic properties/activity of PF4 (effect of the mutation) (HUVEC [3]): Mutation decreases the

B8: PF4-M13H: mutant PF4 polypeptide SEQ ID NO:25; single mutant V50S, without HBD (protein, listed as Homo sapiens)
chain: EAEEDGDLQCLCVKTTSQSRPRHITSLEVIKAGPHCPTAQLIATLKNGRKICLDLQAPLYQEIIQELLES
antiangiogenic properties/activity of PF4 (effect of the mutation) (HUVEC [3]): Mutation does not suppress

B9: PF4-M5H: mutant PF4 polypeptide SEQ ID NO:10; triple mutant L42S, V44Q, T47A, without HBD (protein, listed as Homo sapiens)
chain: EAEEDGDLQCSCQKTASQVRPRHITSLEVIKAGPHCPTAQLIATLKNGRKICLDLQAPLYQEIIQELLES
antiangiogenic properties/activity of PF4 (effect of the mutation) (HUVEC [3]): Decreases the antiangiogenic

B10: PF4-M1: mutant PF4 polypeptide SEQ ID NO:2; heparan sulfate binding domain (HBD) absent (protein, listed as Homo sapiens)
chain: EAEEDGDLQCLCVKTTSQVRPRHITSLEVIKAGPHCPTAQLIATLKNGRKICLDLQAPLYQEIIQELLES
inhibition of cell migration (HUVEC) (HUVEC [5]): PF4-M1 also inhibits cell
antiangiogenic properties/activity of PF4 (effect of the mutation) (HUVEC [3]): PF4-M1 is antiangiogenic
